T1: full length recombinant CD95 protein (FL-CD95), P25445
T1 chain: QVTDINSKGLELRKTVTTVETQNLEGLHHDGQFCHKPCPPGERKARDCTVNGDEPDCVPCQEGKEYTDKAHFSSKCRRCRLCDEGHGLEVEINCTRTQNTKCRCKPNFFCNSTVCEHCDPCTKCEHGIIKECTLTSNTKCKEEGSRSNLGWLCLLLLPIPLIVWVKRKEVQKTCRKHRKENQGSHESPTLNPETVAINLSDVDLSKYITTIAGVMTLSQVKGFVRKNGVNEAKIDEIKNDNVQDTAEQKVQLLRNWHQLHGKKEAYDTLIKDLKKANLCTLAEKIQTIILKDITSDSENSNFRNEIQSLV

T2: human neutrophil elastase (ELANE)
T2 chain: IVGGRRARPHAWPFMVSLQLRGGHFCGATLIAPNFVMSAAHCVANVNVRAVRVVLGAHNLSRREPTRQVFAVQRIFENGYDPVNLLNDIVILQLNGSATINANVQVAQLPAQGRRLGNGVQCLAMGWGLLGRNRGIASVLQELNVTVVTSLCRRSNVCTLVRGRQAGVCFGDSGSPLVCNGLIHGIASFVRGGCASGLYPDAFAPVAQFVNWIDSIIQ

T3: human neutrophil elastase (ELANE) (human, UniProt P08246 30-247)
T3 construct: Native protein: in human PMN conditioned media in the co-immunoprecipitation, purified native ELANE (Abcam) in the enzyme and cleavage assays; also called human ELANE
T3 sequence: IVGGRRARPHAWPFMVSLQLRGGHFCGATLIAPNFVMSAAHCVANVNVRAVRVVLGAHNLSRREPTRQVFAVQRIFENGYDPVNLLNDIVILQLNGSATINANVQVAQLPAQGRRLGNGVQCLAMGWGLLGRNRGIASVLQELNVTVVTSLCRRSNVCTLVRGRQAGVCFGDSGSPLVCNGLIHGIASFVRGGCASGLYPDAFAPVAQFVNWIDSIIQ

T4: C-terminal domain of CD95 (amino acids 157-320; C-CD95), P25445
T4 chain: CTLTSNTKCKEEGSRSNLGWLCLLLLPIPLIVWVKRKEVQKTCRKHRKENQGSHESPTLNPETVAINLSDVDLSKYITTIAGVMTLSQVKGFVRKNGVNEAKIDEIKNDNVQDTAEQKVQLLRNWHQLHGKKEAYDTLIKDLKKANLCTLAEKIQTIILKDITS


What was measured:
[1] = target: T1, full length recombinant CD95 protein …
[2] = target: T2, human neutrophil elastase (ELANE)
[3] = target: T3, human neutrophil elastase (ELANE); assay: from the inventors' studies of ECP as allosteric activator of ELANE (chromogenic substrate kinetics, FIG. 7); method of the KD not stated
[4] = target: T4, C-terminal domain of CD95 (amino acids …)
[5] = target: alpha-1-anti-trypsin (A1AT), P01009
Chain of alpha-1-anti-trypsin (A1AT), P01009 (P01009 whole entry, looked up): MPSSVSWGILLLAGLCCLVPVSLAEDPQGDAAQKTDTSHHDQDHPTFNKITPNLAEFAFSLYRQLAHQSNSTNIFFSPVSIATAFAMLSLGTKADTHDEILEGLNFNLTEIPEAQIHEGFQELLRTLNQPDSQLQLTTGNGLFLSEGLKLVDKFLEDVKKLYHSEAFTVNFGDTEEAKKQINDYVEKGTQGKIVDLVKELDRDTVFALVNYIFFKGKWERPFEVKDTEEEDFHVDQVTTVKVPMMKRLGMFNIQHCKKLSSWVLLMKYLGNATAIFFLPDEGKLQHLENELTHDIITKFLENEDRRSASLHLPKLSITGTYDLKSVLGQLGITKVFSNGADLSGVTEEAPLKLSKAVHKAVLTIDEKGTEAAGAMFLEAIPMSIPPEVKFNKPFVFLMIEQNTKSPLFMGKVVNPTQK

Binder | degradation of purified CD95 [1] | also measured
proteinase 3 (PRTN3) (protein) IVGGHEAQPHSRPYMASLQMRGNPGSHFCGGTLIHPSFVLTAAHCLRDIPQRLVNVVLGAHNVRTQEPTQQHFSVAQVFLNNYDAENKLNDVLLIQLSSPANLSASVATVQLPQQDQPVPHGTQCLAMGWGRVGAHDPPAQVLQELNVTVVTFFCRPHNICTFVPRRKAGICFGDSGGPLICDGIIQGIDSFVIWGCATRLFPDFFTRVALYVDWIRSTLR | cleaved purified CD95 with an identical degradation pattern to ELANE | –
eosinophil cationic protein (ECP) (enzyme, also called ribonuclease 3) RPPQFTRAQWFAIQHISLNPPRCTIAMRAINNYRWRCKNQNTFLRTTFANVVNVCGNQSIRCPHNRTLNNCHRSRFRVPLLHCDLINPGAQNISNCTYADRPGRRFYVVACDNRDPRDSPRYPVVPVHLDTTI | – | kcat of ELANE for its substrate (chromogenic substrate activity assay) [2]: increases kcat for its substrate by 12-fold without altering KM; Kd [3]: ~20 nM
murine neutrophil elastase (mELANE) (protein) IVGGRPARPHAWPFMASLQRRGGHFCGATLIARNFVMSAAHCVNGLNFRSVQVVLGAHDLRRQERTRQTFSVQRIFENGFDPSQLLNDIVIIQLNGSATINANVQVAQLPAQGQGVGDRTPCLAMGWGRLGTNRPSPSVLQELNVTVVTNMCRRRVNVCTLVPRRQAGICFGDSGGPLVCNNLVQGIDSFIRGGCGSGLYPDAFAPVAEFADWINSIIRSHNDHLLTHPKDREGRTN | cleaved purified CD95 with an identical degradation pattern to ELANE | –
human neutrophil elastase (ELANE) (protein) IVGGRRARPHAWPFMVSLQLRGGHFCGATLIAPNFVMSAAHCVANVNVRAVRVVLGAHNLSRREPTRQVFAVQRIFENGYDPVNLLNDIVILQLNGSATINANVQVAQLPAQGRRLGNGVQCLAMGWGLLGRNRGIASVLQELNVTVVTSLCRRSNVCTLVRGRQAGVCFGDSGSPLVCNGLIHGIASFVRGGCASGLYPDAFAPVAQFVNWIDSIIQ | ELANE degrades the C-terminal domain of purified CD95 | degradation by SDS-PAGE followed by coomassie blue staining [4]: ELANE preferentially cleaves the C-terminal domain of CD95; ELANE catalytic activity (chromogenic substrate assay) [5]: loss of ELANE catalytic activity was confirmed by a chromogenic substrate assay
cathepsin G (CTSG) (protein) IIGGRESRPHSRPYMAYLQIQSPAGQSRCGGFLVREDFVLTAAHCWGSNINVTLGAHNIQRRENTQQHITARRAIRHPQYNQRTIQNDIMLLQLSRRVRRNRNVNPVALPRAQEGLRPGTLCTVAGWGRVSMRRGTDTLREVQLRVQRDRQCLRIFGSYDPRRQICVGDRRERKAAFKGDSGGPLLCNNVAHGIVSYGKSSGVPPEVFTRVSSFLPWIRTTMRS | cleaved purified CD95 with an identical degradation pattern to ELANE | –

— US20260144854A1 (UNIVERSITY OF CHICAGO, published 2026)
